A word on the koff: it is the rate constant with which the complex falls apart. What is called kon is the second-order rate constant of association. Usually Kd stands for the concentration at which binding is half-saturated. Read a high Kd as lower affinity.

Assay [1] addresses T1, Fc-GDF15 WT (knob-Fc-(G4S)5-GDF15 paired with hole-Fc, wildtype GDF15) (human) (UniProt Q99988).
T1 sequence (Q99988 whole entry, looked up): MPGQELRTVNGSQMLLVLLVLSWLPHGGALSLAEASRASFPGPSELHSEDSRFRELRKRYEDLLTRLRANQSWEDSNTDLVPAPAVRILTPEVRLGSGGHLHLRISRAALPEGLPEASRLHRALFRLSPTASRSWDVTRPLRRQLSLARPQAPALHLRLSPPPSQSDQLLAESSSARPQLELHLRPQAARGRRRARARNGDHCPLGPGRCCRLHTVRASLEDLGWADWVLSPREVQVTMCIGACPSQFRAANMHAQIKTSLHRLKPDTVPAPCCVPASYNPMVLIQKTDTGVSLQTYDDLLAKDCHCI
Briefly: SPR; Biacore T200, 37 °C; Fc-GDF15 captured on anti-human IgG on a CM4 chip; GFRAL injected as analyte, two-fold series 25-1.56 nM (human) or 100-6.25 nM (murine), 60 s association, 120 s dissociation; 1:1 Langmuir model; duplicate. On the technique in general: SPR reads the build-up and loss of mass on a sensor chip optically.

The target of assay [2] is Fc-GDF15 Mutant 3A (R4N/G6T/L36H) (human). Described as above.
The target of assay [3] is Fc-GDF15 Mutant 2A (A3N/N5T/L36H) (human). The assay is described as above.
Assay [4] concerns the target Fc-GDF15 Mutant 3C (R4N/G6T/V98I) (human). The assay is described as above.
Assay [5] concerns the target Fc-GDF15 Mutant 2C (A3N/N5T/V98I) (human). The description is as above.
The target of assay [6] is Fc-GDF15 Mutant 2 (A3N/N5T) (human). The assay is described as above.
The target of assay [7] is Fc-GDF15 Mutant 3 (R4N/G6T) (human). The description is as above.
Assay [8] concerns the target Fc-GDF15 Mutant 3B (R4N/G6T/L36R) (human). The assay is described as above.
Assay [9] addresses Fc-GDF15 Mutant 3B (R4N/G6T, L36R) (human). Briefly: SPR; Biacore T200, 37 °C; anti-human IgG amine-coupled on a CM4 chip captures Fc-GDF15; GFRAL ECD injected in two-fold dilutions (human 25 to 1.56 nM, murine 100 to 6.25 nM), 60 s association, 120 s dissociation; double referencing, 1:1 Langmuir model; duplicate.
In assay [10] the target is T2, Fc-GDF15 WT (wildtype Fc-GDF15 control; knob-Fc-(G4S)5-GDF15 paired with hole-Fc) (human) (UniProt Q99988).
T2 sequence (Q99988 whole entry, looked up): T1 sequence (Q99988 whole entry, looked up)
The assay is described as above.

For assay [11], the target named is Fc-GDF15 Mutant 2C (A3N/N5T/V98I) (human). The assay is described as above.
Assay [12] concerns the target Fc-GDF15 Mutant 2A (A3N/N5T, L36H) (human). The assay is described as above.
The target in assay [13] is Fc-GDF15 Mutant 2 (A3N/N5T) (human). Described as above.
For assay [14], the target named is Fc-GDF15 Mutant 3A (R4N/G6T, L36H) (human). Described as above.
Assay [15] deals with Fc-GDF15 Mutant 3 (R4N/G6T) (human). The assay is described as above.
The target in assay [16] is Fc-GDF15 Mutant 3C (R4N/G6T, V98I) (human). The description is as above.

B1: mouse GFRAL extracellular domain (ECD), residues 19-350 (domain or fragment)
chain: SQTNDCAHLIQKCLIDANGCEQSWRSMEDTCLTPGDSCKINNSLHCNLSIQALVEKNFQFKECLCMDDLHCTVNKLFGKKCTNKTDNMEKDNKDKWNLTTTPFYHGFKQMQSCLEVTEACVGDVVCNAQLALYLKACSANGNLCDVKHCQAAIRFFYQNMPFNTAQMLAFCDCAQSDIPCQQSKETLHSKPCALNIVPPPTCLSVIHTCRNDELCRTHYRTFQTECWPHITGKCHEDETCISMLGKQDLTCSGSESCRAAFLGTFGTVLQVPCACRGVTQAEEHVCMIFQHMLHSKSCFNYPTPNVKDISSYEKKNSKEITLTGFNSFFNGE
Take B1: the koff was found to be 0.364 s⁻¹ in [1]; 0.2 s⁻¹ in assay [2]; 0.16 s⁻¹ in [3]; 0.188 s⁻¹ in assay [4]; 0.179 s⁻¹ in [5]; 0.372 s⁻¹ in [6]. Besides, the values for the koff in assay [7] and in [8] were 0.474 s⁻¹ and 0.105 s⁻¹, respectively. For the same molecule, the kon in [1] was found to be 1.61e+06 M⁻¹ s⁻¹; in assay [2], 1.13e+06 M⁻¹ s⁻¹; in assay [3] it was 865000 M⁻¹ s⁻¹; in [4], 1.69e+06 M⁻¹ s⁻¹; in [5], 1.88e+06 M⁻¹ s⁻¹; in assay [6], 1.52e+06 M⁻¹ s⁻¹. Moreover, the kon is 1.59e+06 M⁻¹ s⁻¹ in [7] and 1.26e+06 M⁻¹ s⁻¹ in assay [8].

B2: Soluble mouse GFRAL extracellular domain (ECD) (receptor)
chain: B1 chain
B2: the Kd is 82.8 nM in assay [9]; 230 nM in assay [10]; 95.8 nM in [11]; 186 nM in [12]; 245 nM in [13]; 178 nM in assay [14]. The Kd in assay [15] came out at 300 nM; in assay [16], 124 nM.

B3: human GFRAL extracellular domain (ECD), residues 19-351 (domain or fragment)
chain: SQTNNCTYLREQCLRDANGCKHAWRVMEDACNDSDPGDPCKMRNSSYCNLSIQYLVESNFQFKECLCTDDFYCTVNKLLGKKCINKSDNVKEDKFKWNLTTRSHHGFKGMWSCLEVAEACVGDVVCNAQLASYLKACSANGNPCDLKQCQAAIRFFYQNIPFNIAQMLAFCDCAQSDIPCQQSKEALHSKTCAVNMVPPPTCLSVIRSCQNDELCRRHYRTFQSKCWQRVTRKCHEDENCISTLSKQDLTCSGSDDCKAAYIDILGTVLQVQCTCRTITQSEESLCKIFQHMLHRKSCFNYPTLSNVKGMALYTRKHANKITLTGFHSPFNGE
Consider B3, for which the off-rate (koff) in assay [1] turned out to be 0.12 s⁻¹; in assay [2], 0.0402 s⁻¹; in [3] it was 0.039 s⁻¹; in assay [4] it was 0.0571 s⁻¹; in assay [5], 0.0574 s⁻¹; in assay [6], 0.1 s⁻¹. Further, the koff in assay [7] amounted to 0.113 s⁻¹; in [8], 0.0283 s⁻¹. The kon was found to be 1.07e+07 M⁻¹ s⁻¹ in assay [1]; 6.61e+06 M⁻¹ s⁻¹ in assay [2]; 6.47e+06 M⁻¹ s⁻¹ in [3]; 1.05e+07 M⁻¹ s⁻¹ in [4]; 1.03e+07 M⁻¹ s⁻¹ in assay [5]; 1e+07 M⁻¹ s⁻¹ in assay [6]. The kon stood at 1e+07 M⁻¹ s⁻¹ in assay [7] and 7.72e+06 M⁻¹ s⁻¹ in [8].

B4: Soluble human GFRAL extracellular domain (ECD) (receptor)
chain: B3 chain
B4: the Kd is 3.68 nM in [9]; 11 nM in assay [10]; 5.52 nM in assay [11]; 6.03 nM in assay [12]; 10 nM in assay [13]; 6.09 nM in assay [14]. For the same molecule, the figures for the dissociation constant Kd in assay [15] and in assay [16] were 11.2 nM and 5.44 nM, respectively.

Values taken from PMC8076310.
